According to patent US20260250391A1 (NEW YORK UNIVERSITY, published 2026):
Numbering of substitutions follows the chain as printed. Blank lines part the entries; values can stand above or below the binder they belong to.

Key:
[1] = target: T1, Pig ICAM-2 extracellular region (UniProt ID Q6VY03; residues 24-250), C-terminally fused to His6 and Avi-tags (pig, UniProt Q6VY03 24-250, Possibly biotinylated on the Avi-tag, as for human ICAM-2 in Example 1; this is not stated for pig. The tag is not included in the letters.); test: BLI (Octet) of the monobody with pig ICAM-2
T1 construct: also called pICAM-2
T1 sequence: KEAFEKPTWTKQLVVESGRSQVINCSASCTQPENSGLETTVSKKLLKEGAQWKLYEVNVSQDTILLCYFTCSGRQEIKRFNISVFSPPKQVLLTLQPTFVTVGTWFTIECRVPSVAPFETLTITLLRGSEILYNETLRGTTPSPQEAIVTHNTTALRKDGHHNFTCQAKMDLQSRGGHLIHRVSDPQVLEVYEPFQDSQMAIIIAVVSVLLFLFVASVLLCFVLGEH
Description: (§1) The four monobody samples identified in Example 1 were produced as purified proteins with N-terminal tags containing His6 and Avi-tag, followed by enzymatic biotinylation using the BirA enzyme. The proteins were immobilized on streptavidin-coated biolayer interferometry (BLI) tips using an Octet instrument (Sartorius) and their interaction with human ICAM-2 was monitored with the instrument (FIG. 1).
Biolayer interferometry (BLI) for five of the monobodies (Mb_pICAM2_L1, Mb_pICAM2_L6, Mb_pICAM2_L11, Mb_pICAM2_L14, and Mb_pICAM2_L22) was carried out using the procedures and equipment described above (FIG. 5).

[2] = target: T2, Human ICAM-2 extracellular region (UniProt ID P13598; residues 25-223), C-terminally fused to His6 and … (human, UniProt P13598 25-223, biotinylated with BirA (Avi-tag) when used as selection antigen); test: BLI (Octet): biotinylated monobody on streptavidin tips, human ICAM-2 in solution; global 1:1 fit without the highest concentration
T2 construct: range 25-223; Expressed from EXPI293 cells; also called hICAM-2; not shown: C-terminal His6 and Avi-tags
T2 sequence (looked up): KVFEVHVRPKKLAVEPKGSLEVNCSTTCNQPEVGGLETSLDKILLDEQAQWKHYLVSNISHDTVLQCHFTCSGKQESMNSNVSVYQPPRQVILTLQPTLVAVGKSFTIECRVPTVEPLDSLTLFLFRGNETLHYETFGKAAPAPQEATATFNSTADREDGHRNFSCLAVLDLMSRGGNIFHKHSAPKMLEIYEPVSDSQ
Procedure: as §1
FIG. 1 depicts BLI sensorgrams. The global fitting of the 1:1 binding model was performed on the data after excluding the highest concentration sensorgrams, because the association rates in the highest concentration data are too high for accurate fitting. The KD values from the global fitting are shown.

[3] = target: T3, Endogenous human ICAM-2 on the surface of Primary Umbilical Vein Endothelial Cells (HUVEC) (human, UniProt P13598 25-275); test: Flow cytometry (MFI) of negative control monobody bound to streptavidin DyLight 650 on HUVEC; concentration as monomer [panel B]
T3 construct: whole, on cells; also called cell surface ICAM-2; endogenous ICAM-2
T3 sequence (looked up): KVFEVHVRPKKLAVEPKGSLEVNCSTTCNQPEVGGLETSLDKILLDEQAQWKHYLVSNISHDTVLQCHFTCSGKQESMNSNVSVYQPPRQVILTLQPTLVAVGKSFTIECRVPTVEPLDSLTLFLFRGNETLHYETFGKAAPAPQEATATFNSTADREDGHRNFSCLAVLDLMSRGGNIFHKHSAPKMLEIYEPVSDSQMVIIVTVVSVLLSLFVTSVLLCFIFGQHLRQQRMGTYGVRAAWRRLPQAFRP
Procedure: Whether Mb_ICAM2_S40 detected endogenous ICAM-2 molecules expressed on the surface of human cells was tested. […] The expression of ICAM-2 in HUVEC but not in Expi293 was confirmed using a commercially available anti-hICAM-2 antibody (FIG. 2D).

Kd [1]: 19.3 nM
B1: Mb_pICAM2_L1 (designed binder)
chain: VSSVPTKLEVVAATPTSLLISWDAGYWSSVAYYRITYGETGGNSPVQEFTVPGSSSTATISGLKPGVDYTITVYAMTSGYSWYSPISINYRT
notes: Identified by yeast display

Kd [1]: 16.8 nM
B2: Mb_pICAM2_L22 (designed binder)
chain: B1 chain with S56Y, M76K, G79D
notes: Identified by yeast display

Kd [1]: 11.8 nM
B3: Mb_pICAM2_L14 (designed binder)
chain: B1 chain with A31S, S56Y, M76Q, G79Y
notes: Identified by yeast display

Kd [1]: 12.1 nM
B4: Mb_pICAM2_L11 (designed binder)
chain: B1 chain with G53S
notes: Identified by yeast display

Kd [1]: 14 nM
B5: Mb_pICAM2_L6 (designed binder)
chain: B1 chain with G53S, M76Q, G79M
notes: Identified by yeast display

Kd [2]: 26 nM
B6: Mb_ICAM2_S38 (designed binder)
chain: VSSVPTKLEVVAATPTSLLISWDAPAVTVLYYFITYGETGPASYGAQEFAVPGSKSTATISGLKPGVDYTITVYAISNKWKYSPISINYRT
modifications: biotin on the Avi-tag (enzymatic biotinylation with BirA) in the BLI assay
notes: Monobody (FN3 domain from human 10FN3); Purified form carries N-terminal His6 and Avi tags; not shown: N-terminal tags containing His6 and Avi-tag

apparent Kd (pooled screen) [2]: 14 nM
B7: Mb_ICAM2_S40 (designed binder)
chain: VSSVPTKLEVVAATPTSLLISWDAPAVTVLYYFITYGETGGNSPVQEFAVPGSKSTATISGLKPGVDYTITVYALSSKWRYSPISINYRT
modifications: biotin on the Avi-tag (enzymatic biotinylation with BirA) in the BLI and flow cytometry assays
notes: as for B6

Kd [2]: 5.9 nM
B8: Mb_ICAM2_S32 (designed binder)
chain: B7 chain with L75I, S76N, S77Q, K78Y, R80K
modifications: biotin on the Avi-tag (enzymatic biotinylation with BirA) in the BLI assay
notes: as for B6

Kd [2]: 4.5 nM
B9: Mb_ICAM2_S36 (designed binder)
chain: B7 chain with G41H, N42G, P44A, V45Y, S76W, S77Y, W79G, R80I, Y81T
modifications: biotin on the Avi-tag (enzymatic biotinylation with BirA) in the BLI assay
notes: as for B6

binding result [3]: no binding (tested: 200 nM)
B10: Negative control monobody (SEQ ID NO: 34) (designed binder)
chain: VSSVPTKLEVVAATPTSLLISWDASSSSVSYYRITYGETGGNSPVQEFTVPGSKSTATISGLKPGVDYTITVYASSSSSSSSSSSKPISINYRT
notes: Tested conjugated to streptavidin DyLight 650; The tags and biotinylation of this control are not described
